According to patent US10155796B2, “Compositions and methods for inhibiting tumor cells by inhibiting the transcription factor ATF5” (The Trustees of Columbia University in the City of New York, priority 2013, dated 2018):

How the values were obtained:
[1] = tested on: U87 human glioblastoma cells; experiment: Cell viability, MTA assay; format: cell-based
Experimental: (§1) FIG. 19 depicts recombinant TAT-d/n-ATF5 (3 μM) treatment for 3-5 days decreasing viability of two human and one mouse GMB cell line as established by MTA assay.
FIG. 20 depicts synthetic PEN-d/n-ATF5 treatment decreasing cell viability of cultured U87 human glioblastoma cells as established by MTA assay. 5 days treatment at indicated concentrations (μM).
5 days treatment at indicated concentrations (μM), as detected using an MTA assay.

[2] = tested on: primary GS9-6 human glioblastoma stem cells; experiment: Annexin V/PI staining and flow cytometry of spheres; format: cell-based; conditions: 6 days of treatment
Description: FIG. 22 depicts synthetic PEN-d/n-ATF5 promoting apoptotic death of primary GS9-6 human glioblastoma stem cells growing in culture as spheres. 6 days of treatment and data determined by Annexin V/PI staining and flow cytometry
FIG. 23 depicts recombinant PEN-d/n-ATF5 promoting apoptotic death of primary GS9-6 human glioblastoma stem cells growing in culture as spheres. 5 days of treatment and data determined by Annexin V/PI staining and flow cytometry.
Data reflects 6 days of treatment. Data determined by Annexin V/PI staining and flow cytometry.
5 days treatment. Data determined by Annexin V/PI staining and flow cytometry.

C6 (rat glioblastoma) = experiment: Cell line susceptibility testing; format: cell-based; conditions: 1-3 μM range
Experimental: (§2) For example, but not by way of limitation, cell lines shown through testing to be susceptible to TAT-d/n-ATF5 (1-3 μM range) include: U87 (human glioblastoma); U373 (human glioblastoma); LN229 (human glioblastoma); C6 (rat glioblastoma); Mel501 (human melanoma); H2452 (human mesothelioma); MDA-MB-468 (human breast cancer). In addition, a non-limiting list of cell lines shown through testing to be susceptible to PEN-d/n-ATF5 (3 μM) include: Panc-1 (human pancreatic cancer); SH-SYSY (human neuroblastoma cells); and HCT-116 (colon-carcinoma cancer). The method of the present invention can be performed in vitro as well as in vivo in a subject. As used herein, “apoptosis” refers to cell death which is wholly or partially genetically controlled.

[3] = tested on: H2452 (human mesothelioma); experiment: Cell line susceptibility testing; format: cell-based; conditions: 1-3 μM range
Experimental: as §2

[4] = tested on: LN229 (human glioblastoma); experiment: Cell line susceptibility testing; format: cell-based; conditions: 1-3 μM range
Experimental: as §2

[5] = tested on: MDA-MB-468 (human breast cancer); experiment: Cell line susceptibility testing; format: cell-based; conditions: 1-3 μM range
Experimental: as §2

Mel501 (human melanoma) = experiment: Cell line susceptibility testing; format: cell-based; conditions: 1-3 μM range
Experimental: as §2

[6] = tested on: U373 (human glioblastoma); experiment: Cell line susceptibility testing; format: cell-based; conditions: 1-3 μM range
Experimental: as §2

U87 (human glioblastoma) = experiment: Cell line susceptibility testing; format: cell-based; conditions: 1-3 μM range
Experimental: as §2

MEL501 melanoma cells = experiment: Apoptotic nuclei (Hoescht dye) in melanoma cells; format: cell-based, human; conditions: four days, concentrations in μM per FIG. 13
Experimental: TAT-linked dominant-negative ATF5 peptide at the indicated concentrations (in μM) was added to medium of MEL501 melanoma cells. Four days later the cells were stained with Hoescht dye and the cells were stained for proportion with apoptotic nuclei.
TAT-linked dominant-negative ATF5 peptide was added to medium of MEL501 melanoma cells at the concentrations (in μM) indicated in FIG. 13. Four days later the cells were stained with Hoescht dye and the cells were stained for proportion with apoptotic nuclei.

endogenous ATF5 = experiment: Western immunoblotting for endogenous ATF5 in U373 glioblastoma cells; format: cell-based, human; conditions: 17 hrs
Chain of endogenous ATF5 (Q9Y2D1 208-282 limits assumed): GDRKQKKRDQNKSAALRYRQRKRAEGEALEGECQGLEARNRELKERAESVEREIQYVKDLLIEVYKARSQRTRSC
Experimental: (§3) TAT-linked dominant-negative ATF5 peptide at the indicated concentrations (in μM) was added to medium of U373 glioblastoma cells for 17 hrs day and the cells were then harvested and analyzed by Western immunoblotting for levels of endogenous ATF5. […] As previous studies have shown that tumor cells require endogenous ATF5 to survive, the mechanism of action by which the cell-penetrating TAT-ZIP peptide kills may be by causing loss of the endogenous ATF5 protein. Note also the smear above the endogenous ATF5 when the TAT-ZIP peptide is present.
as §3, with “ATF5 peptide was added” for “ATF5 peptide at the indicated concentrations (in μM) was added”, “glioblastoma cells at the concentrations (in μM) indicated in FIG. 14 for 17” for “glioblastoma cells for 17”, “to survive, but without being bound by theory, the mechanism” for “to survive, the mechanism”

DDIT3 (CHOP) = experiment: Western immunoblotting for CHOP in various tumor cell lines; format: cell-based; conditions: times and doses per FIG. 15
Experimental: Cells were treated with TAT-d/n-ATF5 for the indicated times at the indicated doses (in μM) and then harvested and analyzed by Western immunoblotting for expression of CHOP and other non-responsive proteins.
TAT-d/n-ATF5 (TAT-ZIP) peptide induces expression of the pro-death gene DDIT3 (CHOP) in various tumor cell lines. Cells were treated with TAT-d/n-ATF5 for the times and doses (in μM) indicated in FIG. 15 and then harvested and analyzed by Western immunoblotting for expression of CHOP and other non-responsive proteins.

U87 cells = experiment: Apoptotic nuclei in U87 cells after CHOP silencing with siRNA; format: cell-based, human; conditions: siCHOP versus control siRNA, then peptide for 2 days
Experimental: Cells were treated with siCHOP to silence CHOP expression (top Western immunoblot) or with control siRNA. They were then exposed to TAT-d/n-ATF5 for 2 days and assessed for proportion of cells with apoptotic nuclei. The data support the idea that part of the mechanism by which TAT-d/n-ATF5 kills tumor cells is by increasing their expression of CHOP which in turn mediates death.
Cells were treated with siCHOP to silence CHOP expression (top Western immunoblot of FIG. 16) or with control siRNA. They were then exposed to TAT-d/n-ATF5 for 2 days and assessed for proportion of cells with apoptotic nuclei.

BCL2 survival protein = experiment: Western immunoblotting for BCL2 in U87 cells; format: cell-based, human; conditions: 30 hrs
Experimental: (§4) Cultured U87 human glioblastoma cells were treated with the indicated concentrations of TATZIP (TAT-d/n-ATF5 peptide) (in μM) for 30 hrs. The cells were then harvested and assessed by Western immunoblotting for expression of the survival protein BCL2. These findings indicate that in addition to elevating pro-death CHOP, TAT-d/n-ATF5 may also kill tumor cells by reducing their levels of the BCL2 survival protein.
as §4, with “As outlined in FIG. 17, cultured” for “Cultured”

U87 glioblastoma cells = experiment: Combination with temozolomide: apoptotic nuclei in U87 cells; format: cell-based, human; conditions: one day, sub-lethal TZIP 1 μM and TMZ 50 μM, separately or in combination
Experimental: (§5) Cells were cultured for one day with sub-lethal levels of TAT-d/n-ATF5 (TZIP 1 μM) and TMZ (50 μM) either separately or in combination, and then assessed for proportion of cells with apoptotic nuclei. TMZ is presently the first-line treatment for human GBM. The data reveal that TAT-d/n-ATF5 not only functions in presence of TMZ, but that the two drugs act in synergy to kill GBM cells.
as §5, with “As outlined in FIG. 18, cells” for “Cells”

U373 = experiment: Cell viability, MTA assay; format: cell-based, human; conditions: 3 μM, 3-5 days
Experimental: as §1

MSG Cells = experiment: Cell viability, MTA assay; format: cell-based, mouse; conditions: 3 μM, 3-5 days
Experimental: as §1

[7] = tested on: U87 human glioblastoma cells; format: cell-based
Description: (§6) FIG. 21 depicts recombinant TAT-d/n-ATF5 treatment promoting death of cultured U87 human glioblastoma cells as indicated by Annexin V/PI staining and flow cytometry. Proportions of viable cells are shown in lower left quadrant (88% control vs 58% treated). Dying cell proportions are in the lower right and upper right quadrants (9% in controls vs 36% in treated).
as §6, with “As outlined in FIG.” for “FIG.”, “21, Recombinant” for “21 depicts recombinant”, “promotes” for “treatment promoting”

Molecule	cell viability ([1]; 5 days treatment, concentrations (μM) per FIG. 20)	apoptotic death [2]	susceptibility of cell line (C6 (rat glioblastoma))	susceptibility of cell line [3]	susceptibility of cell line [4]	susceptibility of cell line [5]	susceptibility of cell line (Mel501 (human melanoma))	susceptibility of cell line [6]	susceptibility of cell line (U87 (human glioblastoma))	proportion of cells with apoptotic nuclei (MEL501 melanoma cells)	levels of endogenous ATF5 (endogenous ATF5)	expression of CHOP (DDIT3 (CHOP))	effect of silencing of CHOP with siRNA on death caused by the peptide (U87 cells)	expression of the survival protein BCL2 (BCL2 survival protein)	cell killing in combination with temozolomide (proportion of cells with apoptotic nuclei) (U87 glioblastoma cells)	cell viability ([1]; 3 μM, 3-5 days)	cell viability (U373)	cell viability (MSG Cells)	proportion of viable cells (lower left quadrant) [7]	dying cell proportion (lower right and upper right quadrants) ([7]; treated, controls 9%)
synthetic PEN-d/n-ATF5: chemically synthesized Penetratin-linked dominant-negative ATF5 peptide; probably SEQ ID NO: 19 (peptide) RQIKIWFQNRRMKWKKLEQRAEELARENEELLEKEAEELEQENAELEGECQGLEARNRELKERAESV	decreases cell viability	promotes apoptotic death																		
TAT-d/n-ATF5: TAT-linked dominant-negative ATF5 peptide, recombinant; probably SEQ ID NO: 17 (protein) MGSSHHHHHHSSGLVPRGSHMLEYGRKKRRQRRRYPYDVPDYAMASMTGGQQMGRDPDLEQRAEELARENEELLEKEAEELEQENAELEGECQGLEARNRELRERAESV			susceptible	susceptible	susceptible	susceptible	susceptible	susceptible	susceptible	promoted apoptosis in a dose-dependent fashion	greatly reduces expression of endogenous ATF5	elevation of CHOP in all cases	partially protects	down-regulates BCL2 survival protein	synergizes with temozolomide (TMZ) to kill	decreases viability	decreases viability	decreases viability	58%	36%
